Experiment [1] deals with T1, cynomolgus monkey B7H3 expressed on CHO cells (CHO-cynoB7H3) (cynomolgus monkey, UniProt Q7TPB4 26-316 (rat entry)).
T1 chain: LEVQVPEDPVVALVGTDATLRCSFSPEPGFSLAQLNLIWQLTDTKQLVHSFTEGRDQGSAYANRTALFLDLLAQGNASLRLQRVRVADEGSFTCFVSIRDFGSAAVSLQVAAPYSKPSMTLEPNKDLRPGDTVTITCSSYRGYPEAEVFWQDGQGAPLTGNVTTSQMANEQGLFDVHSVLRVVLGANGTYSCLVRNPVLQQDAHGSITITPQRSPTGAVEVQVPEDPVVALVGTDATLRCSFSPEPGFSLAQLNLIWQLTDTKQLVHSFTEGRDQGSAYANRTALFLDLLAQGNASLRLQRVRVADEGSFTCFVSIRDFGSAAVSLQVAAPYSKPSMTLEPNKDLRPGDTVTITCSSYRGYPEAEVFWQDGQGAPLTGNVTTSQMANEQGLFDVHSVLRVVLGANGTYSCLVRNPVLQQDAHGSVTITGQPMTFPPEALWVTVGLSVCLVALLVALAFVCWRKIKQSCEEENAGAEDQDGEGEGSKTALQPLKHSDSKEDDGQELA
Kind of experiment: flow cytometry, hybridoma supernatant on CHO-cynoB7H3 cells. In general terms: In flow cytometry, cells or beads pass a laser one at a time.

Experiment [2] deals with T2, recombinant cynomolgus monkey B7H3 protein (cynomolgus monkey, UniProt Q7TPB4 26-248 (rat entry)).
T2 construct: also called SINO BIOLOGICAL Catalog No. 90806-C02H-50
T2 chain: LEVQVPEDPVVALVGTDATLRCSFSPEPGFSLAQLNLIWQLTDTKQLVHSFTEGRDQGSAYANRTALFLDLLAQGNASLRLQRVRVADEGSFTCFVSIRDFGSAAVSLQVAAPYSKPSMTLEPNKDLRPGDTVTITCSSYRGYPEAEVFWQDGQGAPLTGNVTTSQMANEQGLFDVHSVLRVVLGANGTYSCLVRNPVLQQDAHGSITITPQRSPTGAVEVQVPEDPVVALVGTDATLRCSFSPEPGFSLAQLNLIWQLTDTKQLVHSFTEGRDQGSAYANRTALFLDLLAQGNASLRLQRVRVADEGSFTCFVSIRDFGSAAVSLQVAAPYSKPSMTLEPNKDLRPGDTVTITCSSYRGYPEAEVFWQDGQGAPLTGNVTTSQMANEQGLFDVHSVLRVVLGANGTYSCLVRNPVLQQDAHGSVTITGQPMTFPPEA
The experiment in a line: bio-layer interferometry (ForteBio), hybridoma antibody. (In general: In BLI a coated tip is dipped into the sample, and binding shifts an interference pattern.)

The target of experiment [3] is T3, recombinant human 4Ig-B7H3 protein (human, UniProt Q5ZPR3 29-461).
T3 construct: also called human B7H3 protein; SINO BIOLOGICAL Catalog No. 11188-H08H
T3 sequence: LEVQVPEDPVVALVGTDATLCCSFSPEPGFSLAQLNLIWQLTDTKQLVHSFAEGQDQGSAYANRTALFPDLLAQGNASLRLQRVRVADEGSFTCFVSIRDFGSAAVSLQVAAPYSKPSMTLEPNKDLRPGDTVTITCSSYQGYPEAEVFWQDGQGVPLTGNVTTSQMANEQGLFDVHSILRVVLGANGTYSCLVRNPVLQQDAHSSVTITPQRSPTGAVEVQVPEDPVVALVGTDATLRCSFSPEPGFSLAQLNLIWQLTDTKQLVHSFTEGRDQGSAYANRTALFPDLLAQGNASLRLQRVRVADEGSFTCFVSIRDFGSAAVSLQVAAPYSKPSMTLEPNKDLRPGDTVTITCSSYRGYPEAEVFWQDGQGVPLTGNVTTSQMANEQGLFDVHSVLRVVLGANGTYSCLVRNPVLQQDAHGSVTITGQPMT
The description is as above.

Experiment [4] deals with T3, recombinant human 4Ig-B7H3 protein. Kind of experiment: bio-layer interferometry (ForteBio), as in Example 3. On the procedure:
(§1) Briefly, AMQ (Pall, 1506091) (for sample detection) or AHQ (Pall, 1502051) (for positive control detection) sensors were equilibrated offline in an assay buffer for 30 min, and were equilibrated online for 60 s to establish a baseline. The purified antibodies obtained as described above were loaded online onto an AHQ sensor (ForteBio) for the ForteBio affinity assay. The sensor with the loaded antibodies was then exposed to the antigens (including human 4Ig-B7H3, human 2Ig-B7H3 (ACRO, Catalog No. B73-H52E2) and cynomolgus monkey B7H3 (SINO BIOLOGICAL, Catalog No. 90806-C02H-50)) before transferring the sensor to the assay buffer for dissociation rate measurement. The KD values were analyzed using ForteBio analysis software.
(§2) The binding affinity of the humanized antibodies obtained in Example 4 for the antigens (human B7H3 and cynomolgus monkey B7H3) was determined by ForteBio assay as described in Example 3, which was expressed as an equilibrium dissociation constant (KD).

The target of experiment [5] is T4, recombinant human 2Ig-B7H3 protein (human, UniProt Q5ZPR3 29-466).
T4 construct: Bought soluble recombinant protein; also called ACRO Catalog No. B73-H52E2
T4 sequence: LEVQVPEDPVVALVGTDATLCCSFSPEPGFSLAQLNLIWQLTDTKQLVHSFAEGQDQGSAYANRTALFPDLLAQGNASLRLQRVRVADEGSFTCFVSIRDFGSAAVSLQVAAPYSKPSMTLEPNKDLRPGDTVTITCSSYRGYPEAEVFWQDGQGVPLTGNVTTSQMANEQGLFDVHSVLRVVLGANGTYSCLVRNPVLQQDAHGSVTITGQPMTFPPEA
Described as above. On the procedure: as §1, §2

In experiment [6] the target is T5, human 2Ig-B7H3 overexpressed on CHO-S cells (CHOS-hB7H3-2Ig) (human, UniProt Q5ZPR3 29-534).
T5 construct: also called cells overexpressing human 2Ig-B7H3
T5 sequence: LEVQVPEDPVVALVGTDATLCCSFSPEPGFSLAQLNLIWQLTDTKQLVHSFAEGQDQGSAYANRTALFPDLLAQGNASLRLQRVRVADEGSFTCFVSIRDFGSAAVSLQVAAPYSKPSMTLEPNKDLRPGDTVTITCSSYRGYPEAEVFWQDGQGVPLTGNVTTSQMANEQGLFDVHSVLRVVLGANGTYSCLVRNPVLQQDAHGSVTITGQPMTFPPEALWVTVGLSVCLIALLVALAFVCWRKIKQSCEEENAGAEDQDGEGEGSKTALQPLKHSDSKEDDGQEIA
The experiment in a line: FACS (flow cytometry, MFI) on CHO-S cells overexpressing human 2Ig-B7H3, PE-conjugated anti-human Fc detection; panel 'Cell-level affinity of CHOS hB7H3(2Ig)'. On the procedure:
(§3) 1) CHOS-hB7H3-4Ig, CHOS-hB7H3-2Ig, and CHOS-cyno B7H3 cells were diluted with a PBS solution to 2×10⁶ cells/mL, and added to a U-bottom 96-well plate at 100 μL/well. Three-fold serially diluted antibodies were added.
(§4) 2) The above mixture was incubated on ice for 30 min. The cell suspension was centrifuged at 400 g for 5 min to remove the supernatant, and the cells were washed with a PBS solution to remove the unbound antibodies. 100 μL of the solution of PE-conjugated anti-human Fc antibody (SouthernBiotech) diluted at a ratio of 1:200 was added to each well, and the cells were incubated in the dark on ice for 30 min. Then the cell suspension was centrifuged at 400 g for 5 min to remove the supernatant. The cells were washed with PBS twice to remove the unbound PE-conjugated anti-human Fc antibody. Then the cells were resuspended with 100 μL of PBS, and the binding of the antibody to cells was assayed by FACS.

In experiment [7] the target is T6, human 4Ig-B7H3 overexpressed on CHO-S cells (CHOS-hB7H3-4Ig) (human, UniProt Q5ZPR3 29-534).
T6 construct: The entry includes the signal peptide; also called CHO-hB7H3-4Ig; cells overexpressing human 4Ig-B7H3
T6 sequence: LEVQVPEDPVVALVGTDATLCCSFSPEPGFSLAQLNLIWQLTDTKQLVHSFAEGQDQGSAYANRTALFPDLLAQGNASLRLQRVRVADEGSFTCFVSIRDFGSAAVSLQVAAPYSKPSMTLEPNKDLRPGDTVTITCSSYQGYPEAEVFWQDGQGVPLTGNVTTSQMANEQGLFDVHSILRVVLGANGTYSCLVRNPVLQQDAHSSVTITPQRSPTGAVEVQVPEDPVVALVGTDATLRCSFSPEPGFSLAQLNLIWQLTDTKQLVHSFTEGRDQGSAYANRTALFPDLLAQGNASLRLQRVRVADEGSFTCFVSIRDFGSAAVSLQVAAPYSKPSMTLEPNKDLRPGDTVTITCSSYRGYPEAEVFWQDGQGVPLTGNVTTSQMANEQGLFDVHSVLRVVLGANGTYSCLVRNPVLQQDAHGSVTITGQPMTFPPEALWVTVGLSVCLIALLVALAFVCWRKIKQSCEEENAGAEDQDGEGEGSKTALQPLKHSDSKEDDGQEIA
The experiment in a line: FACS (flow cytometry, MFI) on CHO-S cells overexpressing human 4Ig-B7H3, PE-conjugated anti-human Fc detection; panel 'Cell-level affinity of CHOS hB7H3(4Ig)'. Here is the method: as §3, §4

Experiment [8] concerns the target T2, recombinant cynomolgus monkey B7H3 …. Kind of experiment: bio-layer interferometry (ForteBio), as in Example 3. On the procedure: as §1, §2
The target is the same in experiment [9]. The experiment in a line: bio-layer interferometry (ForteBio), antibody loaded on sensor, antigen in solution. On the procedure: (§5) The equilibrium dissociation constant (KD) for binding of the antibodies of the present invention to human B7H3 was determined by bio-layer interferometry (ForteBio). The ForteBio affinity assay was conducted according to the method (Estep, P et al., High throughput solution Based measurement of antibody-antigen affinity and epitope binding. mAbs, 2013.5(2): 270-8) known in the art.
as §1

Experiment [10] concerns the target T3, recombinant human 4Ig-B7H3 protein. The description is as above. On the procedure:
as §5, §1

The target in experiment [11] is T4, recombinant human 2Ig-B7H3 protein. Described as above. Here is the method:
as §5, §1

The term Kd denotes the constant that tells how readily two partners part at equilibrium. By EC50 is commonly meant the concentration needed to bring the measured effect to its halfway point.

B1: 19A2 (hybridoma clone antibody) (antibody, V domains shown)
VH: EVQLQQSGAELVRPGASVKLSCKTSGYIFTSYWIHWIKQRSGQGLEWIARIYPGTDSTFYNEKFKGRATLTADKSSSTVYLQLNSLKSEDSAVYFCHFITASDWYFDVWGAGTTVTVSS
VL: DIVLTQSPAIMSASPGEKVTLTCSVSSSVNSNYLYWYQQKPGSSPKLWIYGTSNLASGVPARFSGSGSGPSYSLTISSMEAEDAASYFCYQWSSYPFTFGSGTKLEIK
Take B1: the binding result in experiment [1] is “binds”. Besides, the Kd in experiment [2] was 0.977 nM; in [3] it was 0.987 nM.

B2: Hz20G5 humanized antibody (antibody, human IgG1, kappa, V domains shown)
VH: QVQLVQSGAEVKKPGASVKVSCKASGYTFTEYIMHWVRQAPGQRLEWMGGINPGTGGTTYNQKFKDRVTITVDTSASTAYMELSSLRSEDTAVYYCTRRTPPWHFAVWGQGTLVTVSS
VL: DIQLTQSPSFLSASVGDRVTITCSASSSVSYIHWYQQKPGKAPKRWIYDTSRLASGVPSRFSGSGSGTEFTLTISSLQPEDFATYYCQQWSSAPLTFGGGTKVEIKR
On to B2, for which the Kd in [4] was determined as 0.371 nM; in experiment [5], 6.3 nM. Also, the EC50 in experiment [6] came out at 7.54 nM; in experiment [7], 6.28 nM.

B3: MGA271 (positive control antibody) (antibody, V domains shown)
VH: EVQLVESGGGLVQPGGSLRLSCAASGFTFSSFGMHWVRQAPGKGLEWVAYISSDSSAIYYADTVKGRFTISRDNAKNSLYLQMNSLRDEDTAVYYCGRGRENIYYGSRLDYWGQGTTVTVSS
VL: DIQLTQSPSFLSASVGDRVTITCKASQNVDTNVAWYQQKPGKAPKALIYSASYRYSGVPSRFSGSGSGTDFTLTISSLQPEDFATYYCQQYNNYPFTFGQGTKLEIK
notes: also called Enoblituzumab
Regarding B3, the Kd in [8] came to 1.87 nM; in experiment [4] it was 0.939 nM; in [5], 782 nM; in [9], 1.66 nM; in experiment [10], 0.636 nM; in experiment [11], 187 nM. Further, the figures for the EC50 in experiment [6] and in experiment [7] were 100 nM and 8.54 nM, respectively.

B4: 20G5 (hybridoma clone antibody) (antibody, V domains shown)
VH: EVQLQQSVPELVKPGASVKISCKTSGYTFTEYIMHWVKQSHGKNLEWIGGINPNNGGTTYNQKFKDKATLTVDKSSSTAYMELHNLTSEDSAVYYCTRRTPPWHFAVWGAGTSLTVSS
VL: DIVLTQSPTIMSASPGEKVTMTCSASSSVSYIHWYQQKSGTSPKRWIFDTSRLASGVPARFSGSGSGTSYSLTISSMEAEDAATYYCQQWSSAPLTFGTGTTLELK
B4: the binding result in [1] is on record as “binds”. For the same molecule, the Kd in experiment [2] came out at 0.59 nM; in experiment [3] it was 0.362 nM.

B5: Hz19A2 humanized antibody (antibody, human IgG1, kappa, V domains shown)
VH: QVQLVQSGAEVKKPGASVKVSCKASGYIFTSYWIHWVRQAPGQGLEWMGRIYPGTESTFYNEKFKGRVTMTRDTSTSTVYMELSSLRSEDTAVYYCHFITASDWYFDVWGQGTLVTVSS
VL: EIVLTQSPATLSLSPGERATLSCSVSSSVQSNYLYWYQQKPGQAPRLLIYGTSNLASGIPARFSGSGSGTDFTLTISSLEPEDFAVYYCYQWSSYPFTFGQGTKLEIKR
As to B5, the values for the Kd in experiment [8], in [4] and in experiment [5] were 0.968 nM, 0.601 nM and 10.4 nM, respectively. Further, the EC50 in [6] was found to be 138 nM; in experiment [7] it was 8.51 nM.

The values are drawn from patent US20240043540A1 (Innovent, published 2024).
